Results taken from patent publication US20160289285A1 (Molecular Partners, published 2016).
Values belong to the binder of their own block, whether it stands above or below them.

Assays:
human HGF [1] = target: T1, human HGF (human, UniProt P14210 32-728); assay: SPR (ProteOn)
T1 construct: also called hepatocyte growth factor
Description: SPR was measured using a ProteOn instrument (BioRad) and measurement was performed according standard procedures known to the person skilled in the art.

human HGF [2] = target: T1, human HGF; assay: cMet receptor competition ELISA; 5 nM human HGF, immobilised human cMet
From the text: (§1) Such assays are well known to the person skilled in the art. For designed ankyrin repeat domains with binding specificity to VEGF-A, a quantitative sandwich enzyme immunoassay technique was used according to the manufacturer (VEGF-A Quantikine kit DVE00, R&D Systems). A monoclonal antibody specific for VEGF-A was pre-coated onto a microplate. VEGF-A standards and mixtures of VEGF-A (20 pM) and Protein #18, #19, or #20 at varying concentrations were applied to the wells and any free VEGF-A present (i.e. not bound to the designed ankyrin repeat domain) is bound by the immobilized antibody. After washing away any unbound substances, an enzyme-linked polyclonal antibody specific for VEGF-A is added to the wells. Following a wash to remove any unbound antibody-enzyme reagent, a substrate solution is added to the wells and color develops in proportion to the amount of VEGF-A bound in the initial step. The color development is stopped and the intensity of the color is measured. […] IC₅₀ values were calculated from such titration curves obtained as described above using Graph Pad Prism software and standard procedures known to the person skilled in the art. For designed ankyrin repeat domains with binding specificity to HGF, a cMet receptor competition assay was performed. For that purpose, 5 nM of human cMet receptor in PBS were immobilized on Maxisorp plates overnight at 4° C. After washing with PBS 0.05% TWEEN 20, the plate was blocked for 2 h with shaking at 300 rpm using PBS containing 0.05% TWEEN 20 and 0.25% Casein at RT. A constant concentration of 5 nM human HGF was pre-incubated for 30 min at RT with a 1000 nM-1 pM of Proteins #23, #26, #28, and #29 (1:4 dilution series each) on a dilution plate in PBS 0.05% TWEEN 20. After washing of the ELISA plate with PBS 0.05% TWEEN, pre-incubated samples were transferred to the ELISA plate and plate was incubated for 2 h at RT with shaking at 300 rpm. After washing with PBS 0.25% TWEEN, 200 ng/ml anti human HGF antibody was added for 1 h at RT with shaking at 300 rpm. After washing with PBS 0.05% TWEEN, 100 ng/ml HRP conjugated polyclonal anti HGF species antibody was added for 30 min at RT with shaking at 300 rpm. Detection was using 1:3 diluted BM blue POD (Roche).

human VEGF-A [3] = target: T2, human VEGF-A (human, UniProt P15692-4 27-191, limits assumed); assay: ELISA, EC50 comparison
T2 construct: Recombinant, bought or produced in CHO or Pichia pastoris; also called hVEGF-A
T2 sequence (P15692 other isoform, or with tags, fused parts or gaps limits assumed): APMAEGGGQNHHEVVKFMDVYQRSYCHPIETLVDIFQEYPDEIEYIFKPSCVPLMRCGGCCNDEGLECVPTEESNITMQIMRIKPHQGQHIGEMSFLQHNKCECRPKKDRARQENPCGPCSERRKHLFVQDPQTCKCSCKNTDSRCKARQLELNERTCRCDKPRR

human HGF [4] = target: T1, human HGF; assay: ELISA, EC50 comparison
human HGF [5] = target: T1, human HGF; assay: ELISA; species of HGF not stated
human VEGF-A [6] = target: T2, human VEGF-A; assay: ELISA; species of VEGF-A not stated
human VEGF-A [7] = target: T2, human VEGF-A; assay: VEGF-A Quantikine competition ELISA; competitor: immobilised anti-VEGF-A monoclonal antibody
From the text: as §1, with “After washing with PBS 0.05% TWEEN, 100 ng/ml HRP conjugated polyclonal anti HGF species antibody was added for 30 min at RT with shaking at 300 rpm. Detection was using 1:3 diluted BM blue POD (Roche).” left out

human serum albumin = target: T3, human serum albumin (human, UniProt P02768 25-609); assay: size exclusion chromatography coupled to static light scattering
T3 construct: For SEC-MALS purified from CSL Behring 20% solution; also called HSA; SA (human)
T3 sequence (P02768 25-609 limits assumed): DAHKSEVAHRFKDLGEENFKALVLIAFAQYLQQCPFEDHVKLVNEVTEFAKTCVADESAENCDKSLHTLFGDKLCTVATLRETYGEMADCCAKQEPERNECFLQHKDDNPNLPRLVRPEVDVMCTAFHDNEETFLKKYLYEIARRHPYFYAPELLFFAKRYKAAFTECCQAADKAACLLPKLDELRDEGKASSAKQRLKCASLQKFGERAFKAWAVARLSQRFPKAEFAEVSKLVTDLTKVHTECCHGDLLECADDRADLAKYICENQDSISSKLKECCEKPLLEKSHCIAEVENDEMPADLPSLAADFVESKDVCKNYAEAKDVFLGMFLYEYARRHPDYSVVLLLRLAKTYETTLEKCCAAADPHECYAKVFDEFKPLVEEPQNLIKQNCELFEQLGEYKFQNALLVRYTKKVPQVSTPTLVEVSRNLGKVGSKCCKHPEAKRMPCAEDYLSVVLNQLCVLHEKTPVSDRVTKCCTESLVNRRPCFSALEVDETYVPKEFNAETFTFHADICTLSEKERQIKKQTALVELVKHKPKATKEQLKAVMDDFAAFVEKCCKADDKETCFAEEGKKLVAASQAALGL

T1 sequence (P14210 32-728 limits assumed): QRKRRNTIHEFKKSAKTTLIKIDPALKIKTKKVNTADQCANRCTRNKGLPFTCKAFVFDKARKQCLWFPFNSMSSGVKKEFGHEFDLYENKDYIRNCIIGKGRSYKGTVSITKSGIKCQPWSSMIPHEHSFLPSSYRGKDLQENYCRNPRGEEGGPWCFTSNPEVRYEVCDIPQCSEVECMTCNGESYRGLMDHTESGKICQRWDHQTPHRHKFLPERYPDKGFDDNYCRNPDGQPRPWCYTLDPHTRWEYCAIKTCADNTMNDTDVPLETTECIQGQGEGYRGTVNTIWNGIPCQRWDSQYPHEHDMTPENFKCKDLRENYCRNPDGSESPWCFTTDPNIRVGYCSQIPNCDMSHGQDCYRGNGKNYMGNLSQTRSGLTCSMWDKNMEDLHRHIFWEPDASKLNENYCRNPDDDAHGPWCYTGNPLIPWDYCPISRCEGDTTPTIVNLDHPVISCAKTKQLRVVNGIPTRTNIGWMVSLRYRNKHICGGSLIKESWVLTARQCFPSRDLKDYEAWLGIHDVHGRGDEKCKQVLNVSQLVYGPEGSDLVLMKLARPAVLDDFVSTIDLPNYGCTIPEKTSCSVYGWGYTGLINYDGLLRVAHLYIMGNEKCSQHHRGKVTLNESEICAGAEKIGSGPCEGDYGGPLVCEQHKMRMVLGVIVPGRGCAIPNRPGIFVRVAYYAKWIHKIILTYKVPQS

Kd (human HGF [1]): 0.016 nM
IC50 (human HGF [2]): 0.915 nM
B1: Protein #23 (designed binder)
chain: MRGSHHHHHHGSDLGKKLLEAARAGQDDEVRILMANGADVNAKDRFGDTPLHLAADIGHLKIVEVLLKHGADVNAEDWFGNTPLHLAASMGHLEIVEVLLKYGADVNAMDDYGNTPLHLAANTGHLEIVEVLLKHGADVNAQDKFGKTAFDISIDNGNEDLAEILQKAA

factor more potent (EC50) than Protein #71 (human VEGF-A [3]): 2 fold
factor more potent (EC50) than Protein #71 (human HGF [4]): 1.3 fold
EC50 (human HGF [5]): 0.117 nM
EC50 (human VEGF-A [6]): 0.102 nM
B2: Protein #69 (designed binder)
chain: MRGSHHHHHHGSDLGKKLLEAARAGQDDEVRILMANGADVNAKDYFSHTPLHLAARNGHLKIVEVLLKAGADVNAKDFAGKTPLHLAANDGHLEIVEVLLKHGADVNAQDIFGKTPADIAADAGHEDIAEVLQKLGSPTPTPTTPTPTPTTPTPTPTGSRSDLDKKLLEAARAGQDDEVRILLKAGADVNAKDYLGWTPLHLAAHEGHLEIVEVLLKAGADVNAKDVSGYTPLHLAAADGHLEIVEVLLKAGADVNAKDNTGWTPLHLSADLGHLEIVEVLLKAGADVNAQDKFGKTAFDISIDNGNEDLAEILQKLGSPTPTPTTPTPTPTTPTPTPTGSRSDLGKKLLEAARAGQDDEVRILLKAGADVNAKDRYGDTPLHLAADAGHLKIVEVLLKAGADVNAEDYFGNTPLHLAASAGHLEIVEVLLKAGADVNAKDDAGNTPLHLAANTGHLKIVEVLLKAGADVNAQDKSGKTPADLAADAGHEDIAEVLQKLN

factor more potent (EC50) than Protein #69 (human VEGF-A [3]): 1.4 fold
factor more potent (EC50) than Protein #69 (human HGF [4]): 1.1 fold
EC50 (human HGF [5]): 0.107 nM
EC50 (human VEGF-A [6]): 0.073 nM
B3: Protein #107 (designed binder)
chain: MRGSHHHHHHGSDLGKKLLEAARAGQDDEVRELLKAGADVNAKDYFSHTPLHLAARNGHLKIVEVLLKAGADVNAKDFAGKTPLHLAANDGHLEIVEVLLKAGADVNAQDIFGKTPADIAADAGHEDIAEVLQKAAGSPTPTPTTPTPTPTTPTPTPTGSDLDKKLLEAARAGQDDEVRILLKAGADVNAKDSTGWTPLHLAAPWGHPEIVEVLLKAGADVNAKDYQGWTPLHLAAAVGHLEIVEVLLKAGADVNAQDKSGKTPADLAADAGHEDIAEVLQKAAGSPTPTPTTPTPTPTTPTPTPTGSDLGKKLLEAARAGQDDEVRILLKAGADVNAKDRYGDTPLHLAADAGHLKIVEVLLKAGADVNAEDYFGNTPLHLAASAGHLEIVEVLLKAGADVNAKDDAGNTPLHLAANTGHLKIVEVLLKAGADVNAQDKSGKTPADLAADAGHEDIAEVLQKAAGSPTPTPTTPTPTPTTPTPTPTGSDLGKKLLEAARAGQDDEVRELLKAGADVNAKDYFSHTPLHLAARNGHLKIVEVLLKAGADVNAKDFAGKTPLHLAANDGHLEIVEVLLKAGADVNAQDIFGKTPADIAADAGHEDIAEVLQKAA

Kd (human HGF [1]): 0.051 nM
IC50 (human HGF [2]): 0.623 nM
B4: Protein #26 (designed binder)
chain: MRGSHHHHHHGSDLGKKLLEAARAGQDDEVRILLKAGADVNAKDRYGDTPLHLAADIGHLEIVEVLLKAGADVNAEDYFGNTPLHLAASYGHLEIVEVLLKAGADVNAKDDYGNTPLHLAANTGHLEIVEVLLKAGADVNAQDKSGKTPADLAADAGHEDIAEVLQKAA

Kd (human HGF [1]): 0.025 nM
IC50 (human HGF [2]): 1.36 nM
B5: Protein #29 (designed binder)
chain: MRGSHHHHHHGSDLGKKLLEAARAGQDDEVRILMANGADVNAKYEDGLTPLHLAAFYGHLEIVEVLLKHGADVNATDAWGHTPLHLAAYYGHLEIVEVLLKYGADVNTHDKEGMTALHLAALTGHLEIVEVLLKNGADVNAQDKFGKTAFDISIDNGNEDLAEILQKAA

IC50 (human VEGF-A [7]): 0.004 nM
B6: Protein #20 (designed binder)
chain: MRGSHHHHHHGSDLDKKLLEAARAGQDDEVRILLKAGADVNAKDSTGWTPLHLAAPWGHPEIVEVLLKAGADVNAKDFQGWTPLHLAAAVGHLEIVEVLLKAGADVNAQDKSGKTPADLAADAGHEDIAEVLQKAA

IC50 (human VEGF-A [7]): 0.013 nM
B7: Protein #19 (designed binder)
chain: MRGSHHHHHHGSDLGKKLLEAARAGQDDEVRILLKAGADVNAKDSTGWTPLHLAAPWGHPEIVEVLLKAGADVNAKDFQGWTPLHLAAAAGHLEIVEVLLKAGADVNAQDKSGKTPADLAADAGHEDIAEVLQKAA

IC50 (human VEGF-A [7]): 0.013 nM
B8: Protein #18 (designed binder)
chain: MRGSHHHHHHGSDLDKKLLEAARAGQDDEVRILLKAGADVNAKDSTGWTPLHLAAPWGHPEIVEVLLKAGADVNAKDFQGWTPLHLAAAAGHLEIVEVLLKAGADVNAQDKSGKTPADLAADAGHEDIAEVLQKAA

binding result (human serum albumin): binds
B9: Protein #110 (designed binder)
chain: MRGSHHHHHHGSDLGKKLLEAARAGQDDEVRELLKAGADVNAKDYFSHTPLHLAARNGHLKIVEVLLKAGADVNAKDFAGKTPLHLAANEGHLEIVEVLLKAGADVNAQDIFGKTPADIAADAGHEDIAEVLQKAAGSPTPTPTTPTPTPTTPTPTPTGSDLGKKLLEAARAGQDDEVRELLKAGADVNAKDKSGNTPLHLAARFGHLEIVEFLLKAGADVNAKDETGKTPLHLAAIWGHLEIVEVLLKAGADVNAKDLYGRTPLHLAAKLRHLEIVEVLLKAGADVNAQDKFGKTAFDISIDNGNEDLAEILQKAAGSPTPTPTTPTPTPTTPTPTPTGSDLDKKLLEAARAGQDDEVRELLKAGADVNALDQIGWTPLHLAANYGHLEIVEVLLKAGADVNAKDLWGQTPLHLAAWKGHLEIVEVLLKAGADVNAKDTDGLTPLHLAAIRGHLEIVEVLLKAGADVNAQDKSGKTPADLAADAGHEDIAEVLQKAAGSPTPTPTTPTPTPTTPTPTPTGSDLGKKLLEAARAGQDDEVRELLKAGADVNAKDYFSHTPLHLAARNGHLKIVEVLLKAGADVNAKDFAGKTPLHLAANEGHLEIVEVLLKAGADVNAQDIFGKTPADIAADAGHEDIAEVLQKAA

Kd (human HGF [1]): 0.026 nM
IC50 (human HGF [2]): 0.955 nM
B10: Protein #28 (designed binder)
chain: MRGSHHHHHHGSDLGMKLLEAARAGQDDEVRILMANGADVNAHDTWGLTPLHLAAFHGHQEIVEVLLKHGADVNAQDFYGKTPLHLAALRGHLEIVEVLLKYGADVNAQDQFGKTAFDISIDNGNEDLAEILQKAA

EC50 (human HGF [5]): 0.179 nM
EC50 (human VEGF-A [6]): 0.205 nM
B11: Protein #71 (designed binder)
chain: MRGSHHHHHHGSDLGKKLLEAARAGQDDEVRILMANGADVNAKDYFSHTPLHLAARNGHLKIVEVLLKAGADVNAKDFAGKTPLHLAANDGHLEIVEVLLKHGADVNAQDIFGKTPADIAADAGHEDIAEVLQKLGGGGSGGGGSGGGGSGGGGSRSDLDKKLLEAARAGQDDEVRILLKAGADVNAKDYLGWTPLHLAAHEGHLEIVEVLLKAGADVNAKDVSGYTPLHLAAADGHLEIVEVLLKAGADVNAKDNTGWTPLHLSADLGHLEIVEVLLKAGADVNAQDKFGKTAFDISIDNGNEDLAEILQKLGGGGSGGGGSGGGGSGGGGSRSDLGKKLLEAARAGQDDEVRILLKAGADVNAKDRYGDTPLHLAADAGHLKIVEVLLKAGADVNAEDYFGNTPLHLAASAGHLEIVEVLLKAGADVNAKDDAGNTPLHLAANTGHLKIVEVLLKAGADVNAQDKSGKTPADLAADAGHEDIAEVLQKLN
